Measured values reported in ChEMBL document CHEMBL2074219, “Cellular uptake mechanism of amino acid ester prodrugs in Caco-2/hPEPT1 cells overexpressing a human peptide transporter” (Pharm Res, 1998).

Assays:
[1] = substrate: CN(CC(=O)O)C(=O)CN; assay: TP_TRANSPORTER: uptake in PEPT1-overexpressing Caco-2 cells; type: functional, cell-based
[2] = substrate: CN(CC(=O)O)C(=O)CN; assay: TP_TRANSPORTER: uptake in Caco-2 cells; type: functional, cell-based

B1: Solute carrier family 15 member 1 (Homo sapiens), P46059 (protein)
chain: MGMSKSHSFFGYPLSIFFIVVNEFCERFSYYGMRAILILYFTNFISWDDNLSTAIYHTFVALCYLTPILGALIADSWLGKFKTIVSLSIVYTIGQAVTSVSSINDLTDHNHDGTPDSLPVHVVLSLIGLALIALGTGGIKPCVSAFGGDQFEEGQEKQRNRFFSIFYLAINAGSLLSTIITPMLRVQQCGIHSKQACYPLAFGVPAALMAVALIVFVLGSGMYKKFKPQGNIMGKVAKCIGFAIKNRFRHRSKAFPKREHWLDWAKEKYDERLISQIKMVTRVMFLYIPLPMFWALFDQQGSRWTLQATTMSGKIGALEIQPDQMQTVNAILIVIMVPIFDAVLYPLIAKCGFNFTSLKKMAVGMVLASMAFVVAAIVQVEIDKTLPVFPKGNEVQIKVLNIGNNTMNISLPGEMVTLGPMSQTNAFMTFDVNKLTRINISSPGSPVTAVTDDFKQGQRHTLLVWAPNHYQVVKDGLNQKPEKGENGIRFVNTFNELITITMSGKVYANISSYNASTYQFFPSGIKGFTISSTEIPPQCQPNFNTFYLEFGSAYTYIVQRKNDSCPEVKVFEDISANTVNMALQIPQYFLLTCGEVVFSVTGLEFSYSQAPSNMKSVLQAGWLLTVAVGNIIVLIVAGAGQFSKQWAEYILFAALLLVVCVIFAIMARFYTYINPAEIEAQFDEDEKKNRLEKSNPYFMSGANSQKQM
Km [1]: 2100 µM | Km [2]: 700 µM
